According to article PMC11082164:

Target: recombinant human full-length BIN1 isoform 8 (human)

relative membrane binding of Alexa488-ezrin-T567D on supported lipid bilayers with 5% PI(4,5)P2 in the presence of 0.1 µM BIN1 iso8, normalized to ezrin-T567D without BIN1 (confocal intensity) [fold]	relative membrane binding of Alexa488-ezrin on supported lipid bilayers with 5% PI(4,5)P2 in the presence of 0.1 µM BIN1 iso8, normalized to ezrin without BIN1 (confocal intensity) [fold]	Substance
1.5	–	recombinant ezrin T567D (from UniProt P15311 1-586) (natural protein)
–	2.5	recombinant ezrin wild-type (from UniProt P15311 1-586) (natural protein)
